One assay concerns RAJI cells. The assay is described as follows: Jurkat NFAT-GFP assay, coculture with RAJI cells. The class given is cell-based, human. Here is the method:
(B) Induction of NFAT promoter driven GFP expression. The control vector- and SIR-expressing Jurkat-NFAT-GFP cocultured for 4-24 hours with the target antigen-expressing cell line (described above) and their ability to bind to the target antigen is assayed by measuring induction of GFP expression using Flow Cytometry. Cellular supernatant is collected and assayed for the induction of cytokines (e.g., IL2).
Jurkat NFAT-GFP Assay For Synthetic Immune Receptors. The Jurkat-NFAT-GFP cells are engineered in such a way that the IL-2 promoter, which carries NFAT binding sites, is cloned upstream of the GFP gene. These cells have been used to study signaling via TCR and CAR. The different SIRs were stably expressed in Jurkat NFAT-GFP cells by lentiviral mediated gene transfer, followed by selection with puromycin. The SIR-expressing Jurkat-NFAT-GFP cells were cocultured with the target cells at E:T ratio of approximately 1:2 for approximately 4 hours to 18 hours. When the interaction between SIRs and their target antigen results in activation of the NFAT pathway, GFP expression is induced.
Induction of GFP expression by coculturing of Jurkat-NFAT-GFP cells expressing different SIR constructs and the different target cells was studied essentially as described previously (Wu, Roybal, Puchner, Onuffer, & Lim, 2015). GFP expression was monitored by FACS analysis. […] In panel B, Jurkat cells expressing SIR targeting CDH6 (Clone ID: 051716-J05), CD276 (Clone ID: 050516-Q06) and Her2/neu (Clone ID: 050516-I03) were incubated with SKOV3 (top) and […] (middle and bottom) cells, respectively. […] The Jurkat-NFAT-GFP cells were engineered to express different SIRs targeting other antigens and the experiment repeated upon coculture with the target cells expressing their respective target antigen. The Jurkat-NFAT-GFP (parental) cells were used as control. […] The names of different SIRs, their SEQ ID NOs, component antigen binding domains and TCR chains can be determined by reference to Tables 7A-7H. A SIR is considered positive in the assay in case the SIR expressing Jurkat-NFAT-GFP cells show greater % GFP positive cells when cultured with the target cell line as compared to parental Jurkat-NFAT-GFP cells. […] The signs +/−, +, 2+ etc. after the name of the cell lines indicate the relative degree of positivity on the Jurkat-NFAT-GFP assay as measured by the % GFP positive cells after culture of the SIR expressing Jurkat-NFAT-GFP cells with that cell line.

Assay [1] deals with target antigen-expressing cell line. The assay is described as follows: Jurkat NFAT-GFP assay, coculture with target cell lines expressing the respective target antigen (summary Table 10A). The format is cell-based, human. Details: key: The signs +/−, +, 2+ etc. after the name of the cell lines indicate the relative degree of positivity on the Jurkat-NFAT-GFP assay as measured by the % GFP positive cells; +: relative degree of positivity on the Jurkat-NFAT-GFP assay as measured by the % GFP positive cells; 2+: relative degree of positivity on the Jurkat-NFAT-GFP assay as measured by the % GFP positive cells. Put shortly:
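Stable SIR expression in Jurkat-NFAT-GFP cells by lentiviral transfer and puromycin selection; coculture with target cells (E:T approximately 1:2) for 4 to 18 hours; flow cytometric measurement of NFAT-driven GFP; scoring as positive when % GFP-positive cells exceeds that of parental reporter cells.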

A further assay deals with SKOV-3 cells. The assay is described as follows: SKOV-3 intraperitoneal xenograft in NSG mice (survival). The class given is in vivo. Conditions: NSG mice (n = 3), 1×10^6 SKOV-3 cells intraperitoneally, 5 million T cells intravenously. Here is the method:
Human peripheral blood T cells isolated using CD3 magnetic beads were infected with lentiviruses expressing the indicated SIR constructs targeting Folate receptor 1 (FR1), L1CAM and Epcam1. On day 1, the NSG mice were sub-lethally irradiated at a dose of 175 cGy. 24 hours post irradiation (day 2), mice were injected with 1×10^6 SKOV-3 cells intraperitoneally. On day 3, the mice were treated intravenously with 5 million indicated CAR-T cells. Beginning On day 4, mice were injected with human IL-2 i.p. at a dose of 400 IU/mice every alternate day after the injection CAR-T cells till the death of all mice in control group.

Assay [2] in a line: FACS detection of CARs and SIRs by Myc and Protein L staining (cell surface expression). The following applies: staining with APC-conjugated Protein-L, Jurkat-NFAT-GFP cells. The class given is cell-based, human. Here is the method: FACS analysis. Mouse Anti-Human c-Myc APC-conjugated Monoclonal Antibody (Catalog #IC3696A) was from R&D Systems (Minneapolis, MN). Biotinylated protein L was purchased from GeneScript (Piscataway, NJ), reconstituted in phosphate buffered saline (PBS) at 1 mg/ml and stored at 4° C. Streptavidin-APC (SA1005) was purchased from ThermoFisher Scientific.
For detection of CARs and SIRs using Myc staining, 1×10^6 cells were harvested and washed three times with 3 ml of ice-cold 1×PBS containing 4% bovine serum albumin (BSA) wash buffer. After wash, cells were resuspended in 0.1 ml of the ice-cold wash buffer containing 10 μl of APC-conjugated Myc antibody and incubated in dark for 1 hour followed by two washings with ice cold wash buffer.
For detection of CARs and SIRs using Protein L staining, 1×10^6 cells were harvested and washed three times with 3 ml of ice-cold 1×PBS containing 4% bovine serum albumin (BSA) wash buffer. After wash, cells were resuspended in 0.1 ml of the ice-cold wash buffer containing 1 μg of protein L at 4° C. for 1 hour. Cells were washed three times with ice-cold wash buffer, and then incubated (in the dark) with 10 μl of APC-conjugated streptavidin in 0.1 ml of the wash buffer for 30 minutes followed by two washings with ice cold wash buffer. FACS was done using FACSVerse analyzer from BD Biosciences.

The mark [3] stands for this setting: GFP expression upon 18 hour co-culture with RAJI cells, Table 10B.

Where a chain is given by its changes, count along the chain named.

B1: 11240 (protein)
chain: MALPVTALLLPLALLLHAARPDIVMTQSPATLSLSPGERATLSCRSSKSLQNVNGNTYLYWFQQKPGQSPQLLIYRMSNLNSGVPDRFSGSGSGTEFTLTISSLEPEDFAVYYCMQHLEYPITFGAGTKLEIKLEEQKLISEEDLGSGEDLKNVFPPEVAVFEPSKAEIAHTQKATLVCLATGFYPDHVELSWWVNGKEVHSGVCTDPQPLKEQPALNDSRYCLSSRLRVSATFWQNPRNHFRCQVQFYGLSENDEWTQDRAKPVTQIVSAEAWGRADCGITSASYHQGVLSATILYEILLGKATLYAVLVSALVLMAMVKRKDSRGRAKRSGSGATNFSLLKQAGDVEENPGPTSMDWIWRILFLVGAATGAHSFEEVQLVESGGGLVKPGGSLKLSCAASGYTFTSYVMHWVRQAPGKGLEWIGYINPYNDGTKYNEKFQGRVTISSDKSISTAYMELSSLRSEDTAMYYCARGTYYYGTRVFDYWGQGTLVTVSSTREQKLISEEDLGSGIQNPDPAVYQLRDSKSSDKSVCLFTDFDSQTNVSQSKDSDVYITDKCVLDMRSMDFKSNSAVAWSNKSDFACANAFNNSIIPEDTFFPSSDVPCDVKLVEKSFETDTNLNFQNLSVIGFRILLLKVAGFNLLMTLRLWSSRAKRSGSGVKQTLNFDLLKLAGDVESNPGPSRGHMTEYKPTVRLATRDDVPRAVRTLAAAFADYPATRHTVDPDRHIERVTELQELFLTRVGLDIGKVWVADDGAAVAVWTTPESVEAGAVFAEIGPRMAELSGSRLAAQQQMEGLLAPHRPKEPAWFLATVGVSPDHQGKGLGSAVVLPGVEAAERAGVPAFLETSAPRNLPFYERLGFTVTADVEVPEGPRTWCMTRKPGA
For B1, in the assay with RAJI cells (overnight co-culture with RAJI cells, Table 10C), the “NFAT-GFP (%)” value came to 31.59%.

B2: 121815-C05 (protein)
chain: MALPVTALLLPLALLLHAARPDELQMTQSPSSLSASVGDRVTITCRASQSISSYLNWYQQKPGQPPKLLIYWASTRESGVPDRFSGSESGTNYTLTISSLQPEDFATYFCQQSDSLPITFGQGTRLDIQLEGKPIPNPLLGLDSTGSGEDLKNVFPPEVAVFEPSKAEIAHTQKATLVCLATGFYPDHVELSWWVNGKEVHSGVCTDPQPLKEQPALNDSRYCLSSRLRVSATFWQNPRNHFRCQVQFYGLSENDEWTQDRAKPVTQIVSAEAWGRADCGITSASYHQGVLSATILYEILLGKATLYAVLVSALVLMAMVKRKDSRGRAKRSGSGATNFSLLKQAGDVEENPGPTSMDWIWRILFLVGAATGAHSFEEVQLLESGGGVVQPGRSLRLSCAASGFTFSSYGMHWVRQAPGKGLEWVAVISYDGSNKYYADSVKGRFTISRDNSKNTLYLQMNSLRAEDTAVYYCAKDMGWGSGWRPYYYYGMDVWGQGTTVTVSSTREQKLISEEDGSGIQNPDPAVYQLRDSKSSDKSVCLFTDFDSQTNVSQSKDSDVYITDKCVLDMRSMDFKSNSAVAWSNKSDFACANAFNNSIIPEDTFFPSSDVPCDVKLVEKSFETDTNLNFQNLSVIGFRILLLKVAGFNLLMTLRLWSSRAKRSGSGVKQTLNFDLLKLAGDVESNPGPSRGHMTEYKPTVRLATRDDVPRAVRTLAAAFADYPATRHTVDPDRHIERVTELQELFLTRVGLDIGKVWVADDGAAVAVWTTPESVEAGAVFAEIGPRMAELSGSRLAAQQQMEGLLAPHRPKEPAWFLATVGVSPDHQGKGLGSAVVLPGVEAAERAGVPAFLETSAPRNLPFYERLGFTVTADVEVPEGPRTWCMTRKPGA
modifications: Synthetic Immune Receptor (SIR)
With B2, the “NFAT-GFP ASSAY Positive Cell lines” value in assay [1] (coculture with A549 cells) is reported as “A549 (2+), Hela”; in assay [1] (coculture with PC3 cells), 2+; in assay [1] (coculture with SKOV3 cells) it was “(+)”. The “Median Survival” value with SKOV-3 cells is 63 days.

B3: 10492 (protein)
chain: MALPVTALLLPLALLLHAARPDVVMTQSPSSLSASVGDRVTITCRASQDISKYLNWYQQKPGKAPKLLIYHTSRLHSGVPSRFSGSGSGTDFTLTISSLQPEDFATYYCQQGNTLPYTFGGGTKVEIKLEDLKNVFPPEVAVFCPSEAEISHTQKATLVCLATGFYPDHVELSWWVNGKEVHSGVSTDPQPLKEQPALNDSRYCLSSRLRVSATFWQNPRNHFRCQVQFYGLSENDEWTQDRAKPVTQIVSAEAWGRADCGFTSESYQQGVLSATILYEILLGKATLYAVLVSALVLMAMVKRKDSRGRAKRSGSGATNFSLLKQAGDVEENPGPTSMDWIWRILFLVGAATGAHSFEQVQLQESGPGLVKPSQTLSLTCTVSGVSLPDYGVSWIRQPPGKGLEWIGVIWGSETTYYNSALKSRVLISVDTSKNQVSLKLSSVTAADTAVYYCARHYYYGGSYAMDYWGQGTTVTVSSTRIQNPDPAVYQLRDCKSSDKSVCLFTDFDSQTNVSQSKDSDVYITDKTVLDMRSMDFKSNSAVAWSNKSDFACANAFNNSIIPEDTFFPSPESSCDVKLVEKSFETDTNLNFQNLSVIGFRILLLKVAGFNLLMTLRLWSS
Turning to B3, in the assay on RAJI cells (setting [3]), the “NFAT-GFP (%)” value is given as 2.48%. Also, the “Prt-L-APC (%)” value in assay [2] is 8%.

B4: 10493 (protein)
chain: B3 chain with C144E, D188C, C494S, T524C
For the molecule B4, in the assay on RAJI cells (setting [3]), the “NFAT-GFP (%)” value was 1.35%. Further, the “Prt-L-APC (%)” value in assay [2] was 9%.

B5: 10495 (protein)
chain: B3 chain with C144E, S146C, Y489C, C494S
Regarding B5, the “NFAT-GFP (%)” value in the assay on RAJI cells (setting [3]) is reported as 1.99%. The “Prt-L-APC (%)” value in assay [2] stood at 0%.

B6: 10494 (protein)
chain: B3 chain with C144E, S206C, C494S, T524C
As to B6, the “NFAT-GFP (%)” value with RAJI cells (setting [3]) worked out at 0.9%. Moreover, the “Prt-L-APC (%)” value in assay [2] came out at 7%.

Source of the values: patent US12269859B2, “Synthetic immune receptors and methods of use thereof” (Angeles Therapeutics, Inc., priority 2016, dated 2025).
